From the supplement of paper PMC9732359
± gives the uncertainty stated by the source.

Test: protein stability index of a GFP-peptide fusion (yeast GPS) (PSI 1-4); higher = more stable; sorted into four equal gates, so the index is relative within each strain
How it was run: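 Tiled 17-residue yeast protein peptides were fused downstream of GFP in a plasmid that also expresses Cherry, and the pooled library was carried in yeast. Mid-log cultures in leucine-free medium were sorted into four equal gates by GFP/Cherry fluorescence ratio, and plasmids from each gate were PCR-amplified and Illumina-sequenced, with reads assigned to strains by barcodes. The protein stability index for each peptide was each gate's read frequency times its gate number, summed.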

| Sequence | protein stability index (doa10∆) | protein stability index (pdr5∆) | protein stability index (san1∆) | protein stability index (ubr1∆) |
| --- | --- | --- | --- | --- |
| VTYALSGYVRSRGESDD [RPS21A] | 3.3 ± 0.22 | 3.07 ± 0.29 | 3.2 ± 0.16 | 3.3 ± 0.19 |
| NRTKSTTIKNIDILNRT [SMC4] | 2.15 ± 0.046 | 2.55 ± 0.043 | 2.38 ± 0.062 | 2.53 ± 0.041 |
| AYNKKSTISAREIQTAV [HTB1] | 2.5 ± 0.1 | 3.03 ± 0.089 | 2.98 ± 0.12 | 2.92 ± 0.13 |
| IEETSAAIKDLDDFGEE [RRP43] | 2.85 ± 0.19 | – | – | – |
| PEEATTIFSVMVEWLES [PRP8] | 1.76 ± 0.076 | 1.26 ± 0.093 | 1.28 ± 0.14 | 1.77 ± 0.13 |
| ARDAPTKISTLAVKVHG [QCR2] | 1.4 ± 0.11 | 2.09 ± 0.14 | 1.38 ± 0.14 | 1.09 ± 0.045 |
| GKPHFSLLGGFDENIAR [PCI8] | 3.18 ± 0.11 | 2.91 ± 0.12 | 3.25 ± 0.095 | 2.96 ± 0.076 |
| LLKLERKKTEAVARLKS [SNF2] | 1.89 ± 0.068 | 2.14 ± 0.083 | 2.06 ± 0.091 | 1.97 ± 0.061 |
| LENMPHPWEQAKEVKVL [PRP8] | 2.7 ± 0.23 | 2.9 ± 0.17 | 3.09 ± 0.1 | 2.94 ± 0.093 |
| MHALKNRSEQNGQEQQG [RGR1] | – | 3.06 ± 0.21 | – | 3.06 ± 0.21 |
| ALSIADDASSAELLGRV [RPC53] | 3.02 ± 0.16 | 2.92 ± 0.26 | 3.21 ± 0.18 | 3.12 ± 0.085 |
| PSPPNVIITDGTLLRED [YDL088C/ASM4] | 2.71 ± 0.036 | 2.81 ± 0.041 | 2.97 ± 0.045 | 2.91 ± 0.034 |
| LDKIYTRPISSQVLDLA [SMC2] | 1.53 ± 0.079 | 2.01 ± 0.08 | 1.25 ± 0.15 | 1.27 ± 0.054 |
| AQGKEFGVTKARWPAKS [RPL17A] | 3.02 ± 0.13 | 3.49 ± 0.12 | 3.26 ± 0.066 | 3.35 ± 0.097 |
| SSSSLECATCHGNLASC [RPO31] | 2.79 ± 0.046 | 3.04 ± 0.058 | 3.05 ± 0.049 | 2.95 ± 0.037 |
| KVYYFQGGNNELGTAVG [RPL30] | 2.67 ± 0.093 | 2.91 ± 0.086 | 2.54 ± 0.054 | 2.89 ± 0.072 |
| SHTSLVKIGKFIPHGLK [SRB8] | 1.71 ± 0.053 | 1.73 ± 0.045 | 1.97 ± 0.084 | 1.55 ± 0.054 |
| VTIASEIYYDPDPRSTV [RPO21] | 2.41 ± 0.14 | 2.86 ± 0.14 | – | 2.52 ± 0.11 |
| YQNQFVEFCRNINSTDK [YML103C/NUP188] | 3.04 ± 0.11 | 2.76 ± 0.088 | 2.6 ± 0.12 | 2.92 ± 0.049 |
| GEIDFIKNIGKSLKNNF [YML103C/NUP188] | 2.59 ± 0.21 | 2.57 ± 0.18 | 2.17 ± 0.15 | – |
| QAHEIVIPSYSKWFNLE [SWI3] | 1.84 ± 0.052 | 1.82 ± 0.051 | 1.81 ± 0.071 | 1.66 ± 0.038 |
| NLPEEERKQIHEFKLIV [GRR1] | 2.13 ± 0.29 | 3.35 ± 0.24 | – | 2.73 ± 0.13 |
| ASLALAHVFVGTCNGDI [RPN1] | 2.48 ± 0.059 | 2.61 ± 0.054 | 2.43 ± 0.077 | 2.58 ± 0.074 |
| TSPQYIPSPLSSTKPPG [NUT1] | 2.51 ± 0.039 | 2.42 ± 0.034 | 2.4 ± 0.048 | 2.45 ± 0.029 |
| LIEKVDDTAANNGDKDH [YIL149C/MLP2] | 3.09 ± 0.099 | 3.25 ± 0.084 | 2.99 ± 0.086 | 3.09 ± 0.065 |
| MILKLVCQVTKFGLLLQ [ECM29] | 2.12 ± 0.066 | 2.28 ± 0.078 | 2.46 ± 0.072 | 1.61 ± 0.063 |

| Sequence | protein stability index (doa10∆) | protein stability index (pdr5∆) | protein stability index (san1∆) | protein stability index (ubr1∆) |
| --- | --- | --- | --- | --- |
| LLNDECTESTRENALYD [SNF2] | 3.39 ± 0.2 | 3.07 ± 0.15 | 3.31 ± 0.071 | 3.69 ± 0.15 |
| GETIKSNAVTQTNIWEE [SEM1] | 3.37 ± 0.087 | 3.54 ± 0.16 | 2.97 ± 0.17 | 3.43 ± 0.14 |
| FKVRTNLNDKFGIYILT [MED1] | 1.76 ± 0.05 | 1.87 ± 0.046 | 1.98 ± 0.098 | 1.92 ± 0.042 |
| LGIALIALGEDIGKEMS [RPN1] | 3.01 ± 0.081 | 3.01 ± 0.091 | 2.9 ± 0.1 | 3.02 ± 0.06 |
| TQVALNESEKDQWLEEY [UBP6] | 3 ± 0.1 | 2.55 ± 0.07 | 2.66 ± 0.077 | 2.88 ± 0.055 |
| HHSWSQSDLEIITQYVF [ARP9] | 2.29 ± 0.051 | 2.82 ± 0.056 | 2.73 ± 0.056 | 3.08 ± 0.044 |
| IQQLISQFLKRVHANLQ [SNF11] | 1.63 ± 0.051 | 1.61 ± 0.044 | 1.52 ± 0.068 | 1.54 ± 0.038 |
| PEIDNLDDLVVLKKKNI [RRP6] | 2.37 ± 0.067 | 2.15 ± 0.052 | 2.59 ± 0.089 | 2.79 ± 0.066 |
| YVKDARKDTVSREVLRY [RPC40] | 3.64 ± 0.13 | 3.2 ± 0.14 | 3.33 ± 0.071 | 3.21 ± 0.11 |
| QNDILQESFINTMSAWV [FAS2] | 2.14 ± 0.089 | 2.54 ± 0.19 | 2.55 ± 0.074 | 2.28 ± 0.086 |
| RFTKFSDTLKEFKIEQN [YDL116W/NUP84] | 1.74 ± 0.076 | 1.74 ± 0.081 | 1.42 ± 0.18 | 1.45 ± 0.058 |
| EMARTKKACIIFFDEID [RPT1] | 2.14 ± 0.062 | 2.5 ± 0.068 | 2.54 ± 0.083 | 2.56 ± 0.047 |
| LTVAMYINSDSVNPAML [RPO31] | 2.4 ± 0.11 | 2.47 ± 0.11 | 2.69 ± 0.14 | 2.68 ± 0.082 |
| EYLTLNDFNDLNIDWST [MED2] | 2.83 ± 0.06 | 2.92 ± 0.062 | 2.6 ± 0.053 | 2.51 ± 0.043 |
| DSSVEDSTDNENSGKEM [LIN1] | 3.04 ± 0.041 | 3.24 ± 0.069 | 3.41 ± 0.081 | 2.99 ± 0.031 |
| YTAVDTAKLQMRRFILG [RPN14] | 1.35 ± 0.27 | 1.47 ± 0.093 | 1.55 ± 0.3 | 1.25 ± 0.18 |
| ECPLDPGGYFIVNGTEK [RET1] | 3.18 ± 0.12 | 3.34 ± 0.095 | 3.26 ± 0.088 | 3.29 ± 0.082 |
| NLSAFKIVYIAPLKALV [BRR2] | 1.55 ± 0.054 | 1.54 ± 0.051 | 1.49 ± 0.12 | 1.56 ± 0.062 |
| SYHNGNLKGRPYTGWVD [FAS2] | 2.07 ± 0.096 | 3.13 ± 0.1 | 3.08 ± 0.1 | 2.83 ± 0.094 |
| IRKLTLRDTFIELDQVL [RPO21] | 2.31 ± 0.12 | 2.89 ± 0.079 | 2.7 ± 0.074 | 2.23 ± 0.11 |
| LIYHLKDCAEVDSRTKI [IRR1] | 3.23 ± 0.086 | 3.18 ± 0.072 | 3.02 ± 0.058 | 3.23 ± 0.092 |
| KRKPAKSSSNRSCVSNS [RPN4] | 2.89 ± 0.059 | 3.01 ± 0.077 | 3.08 ± 0.065 | 2.98 ± 0.048 |
| NANIFSSVKCFGPIKVE [FAS1] | 2.04 ± 0.068 | 1.63 ± 0.046 | 2.17 ± 0.067 | 1.51 ± 0.058 |
| YFKSILLNKNTGNNLYD [SWI1] | 2.59 ± 0.048 | 2.42 ± 0.036 | 2.04 ± 0.05 | 2.19 ± 0.031 |
| SFTQGELNDLKWGRNQP [YMR129W/POM152] | 3.04 ± 0.15 | 2.84 ± 0.09 | 3.14 ± 0.091 | 2.78 ± 0.074 |
